{
  "source": "paper PMC8837033",
  "molecular_target": "Shp-2 (UniProt P35235)",
  "test": "anti-FLAG co-IP, Shp-2 immunoblot",
  "conditions": "reference: wild type, 1 mM pervanadate; sites Y447,Y470",
  "data": [
    {"substance": "Siglec-8 (from UniProt Q9NYZ4) Y447F+Y470F, 1 mM pervanadate", "values": [
      {"measurement": "binding against the reference", "result": "lost"}
    ]}
  ]
}
